{"source": "paper PMC3432171", "binders": {"B1": {"name": "VDRE duplex (dsDNA)", "DNA 1": "CACGGTTCACGAGGTTCACAC", "DNA 2": "GTGTGAACCTCGTGAACCGTG"}}, "biological_target": "T1, VDRm-NT (vitamin D receptor, flexible loop deleted, no His-tag) (rat, UniProt P13053 1-423, del165-211)", "T1 sequence": "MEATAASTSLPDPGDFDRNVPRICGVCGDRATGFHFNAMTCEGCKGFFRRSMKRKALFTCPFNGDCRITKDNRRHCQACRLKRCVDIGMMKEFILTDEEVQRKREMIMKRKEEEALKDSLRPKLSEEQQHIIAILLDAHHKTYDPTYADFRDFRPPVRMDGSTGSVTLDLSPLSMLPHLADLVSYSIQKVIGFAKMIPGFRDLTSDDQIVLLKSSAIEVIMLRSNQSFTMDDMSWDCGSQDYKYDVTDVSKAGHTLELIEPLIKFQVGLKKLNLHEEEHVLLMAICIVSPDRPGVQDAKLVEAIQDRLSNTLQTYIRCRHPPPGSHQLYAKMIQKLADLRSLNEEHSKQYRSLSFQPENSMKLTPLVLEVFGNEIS", "experiment": "EMSA", "data": [{"binder": "B1", "values": [{"measurement": "binding result", "result": "binds"}]}]}
